The source of these data is US20250197503A1 (SHANGHAI INSTITUTE OF MATERIA MEDICA CHINESE ACADEMY OF …, published 2025).

The chains are these.
B1: h_Nb1_A61K (VHH)
VHH: DVQLQESGGGLVQPGGSLRLSCAASGFTFSSYAMSWVRQAPGKGLEWVSDINSGGDNTDYKDSVKGRFTISRDNAKNTLYLQMNSLKPEDTAVYYCARGPKLCFSSWGQGTQVTVSS
notes: also called 74
B2: h_Nb1_D59R (VHH)
VHH: B1 VHH with D59R, K61A
notes: also called 75
B3: h_Nb1_D62Y (VHH)
VHH: B1 VHH with K61A, D62Y
notes: also called 79
B4: h_Nb1_C103M (VHH)
VHH: B1 VHH with K61A, C103M
notes: also called 81
B5: h_Nb1_D62W (VHH)
VHH: B1 VHH with K61A, D62W
notes: also called 78
B6: h_Nb1_G99W (VHH)
VHH: B1 VHH with K61A, G99W
notes: also called 85
B7: h_Nb1_D59F (VHH)
VHH: B1 VHH with D59F, K61A
notes: also called 77
B8: h_Nb1_G99Y (VHH)
VHH: B1 VHH with K61A, G99Y
notes: also called 86
B9: h_Nb1_C103W (VHH)
VHH: B1 VHH with K61A, C103W
notes: also called 82
B10: h_Nb1_A61N (VHH)
VHH: B1 VHH with K61N
notes: also called 72
B11: h_Nb1_D59M (VHH)
VHH: B1 VHH with D59M, K61A
notes: also called 76
B12: h_Nb1_G99R (VHH)
VHH: B1 VHH with K61A, G99R
notes: also called 83
B13: h_Nb1_C103K (VHH)
VHH: B1 VHH with K61A, C103K
notes: also called 80
B14: h_Nb1_A61Q (VHH)
VHH: B1 VHH with K61Q
notes: also called 73
B15: h_Nb1_G99Q (VHH)
VHH: B1 VHH with K61A, G99Q
notes: also called 84
B16: h_Nb2_G101Y (VHH)
VHH: DVQLQESGGGLVQPGGSLRLSCAASGFTFGDRWMYWLRQAPGKGLEWVSSINPAGRSTYYADSVKGRFTISRDNAKNTLYLQMNSLKSEDTAVYYCTKDPYGYQKGQGTQVTVSS
notes: also called 92
B17: h_Nb2_G101R (VHH)
VHH: B16 VHH with Y101R
notes: also called 90
B18: h_Nb2_P100E (VHH)
VHH: B16 VHH with P100E, Y101G
notes: also called 97
B19: h_Nb2_G30W (VHH)
VHH: B16 VHH with G30W, Y101G
notes: also called 89
B20: h_Nb2_G30F (VHH)
VHH: B16 VHH with G30F, Y101G
notes: also called 88
B21: h_Nb2_G30R (VHH)
VHH: B16 VHH with G30R, Y101G
notes: also called 87
B22: h_Nb2_F29R (VHH)
VHH: B16 VHH with F29R, Y101G
notes: also called 93
B23: h_Nb2_P100R (VHH)
VHH: B16 VHH with P100R, Y101G
notes: also called 95
B24: h_Nb2_F29W (VHH)
VHH: B16 VHH with F29W, Y101G
notes: also called 94
B25: h_Nb2_P100Q (VHH)
VHH: B16 VHH with P100Q, Y101G
notes: also called 96
B26: h_Nb2_G101W (VHH)
VHH: B16 VHH with Y101W
notes: also called 91
B27: h_Nb12 VHH (VHH)
VHH: DVQLQESGGGLVQAGGSLRLSCAASGRTFSSRAMGWFRQAPGKEREFVAAISGSGRNTYYADSVKGRFTISRDNAKNSVNLQMNSLKPEDTAVYYCNAAGGGITIATMTQRTQYDYWGQGTQVTVSS
B28: h_Nb1 VHH (VHH)
VHH: B1 VHH with K61A
B29: h_Nb13 VHH (VHH)
VHH: DVQLQESGGGLVQPGGSLRLSCAASGSIFSINAMGWYRQAPGKSRELVAAITSGGSTNYADSVKGRFTISRDTAKNTVYLLMNSLEPEDTAVYYCNVERRRPPHYLSEYDFDWGQGTQVTVSS
B30: h_Nb26 VHH (VHH)
VHH: B29 VHH with S25P, S30R, S44Q, K64Q, T73N, L81Q, E86K, L106Y, E108D
B31: h_Nb4 VHH (VHH)
VHH: DVQLQESGGGLVQAGGSLRLSCAAPSRMFSGYTMGWYRQAPGKQRELVAQIANGGFTDYIDSVKGRFSISRDTVLNMMYLQMNSLKPEDTAVYYCNLVLVNGIPTRNWGQGTQVTVSS
B32: h_Nb9 VHH (VHH)
VHH: DVQLQESGGGLVQPGGSLRLSCASSGSIFGLGVKGWYRQPPGNQREMVAQIISGGRISYADSVKGRFTISRDNAKNTVYLQMNSLKPEDTAVYYCNAWGPGQRNYWGRGTQVTVSS
B33: h_Nb30 VHH (VHH)
VHH: DVQLQESGGGLVQPGESLRVSCAASGFTFSNYYMTWVRQAPGKGLEWVSFLNPSSSERFYADSVKGRFTISRDNAKNTLDLLMHSLKPEDTALYYCARHLKYNWAPNYDYWGQGTQVTVSS
B34: h_Nb5 VHH (VHH)
VHH: DVQLQESGGGAVQSGESLRLSCAASGRDLMFYDVAWFRQAPGKEREGVSYIRSSGTLTKYADSVKGRFTISRDNDKNTVSLQMNSLNPEDTAKYYCAARLQSATSHSDLREDEFNSWGQGTQVTVSS
B35: h_Nb2 VHH (VHH)
VHH: B16 VHH with Y101G

Residue numbers refer to the chain shown, from its start.

In one assay the target is T1, human PD-L1 protein (ELISA antigen) (human, UniProt Q9NZQ7 19-238, limits assumed).
T1 construct: One molecule is used for both ELISAs; also called PD-L1-biotin protein
T1 sequence (Q9NZQ7 19-238 limits assumed): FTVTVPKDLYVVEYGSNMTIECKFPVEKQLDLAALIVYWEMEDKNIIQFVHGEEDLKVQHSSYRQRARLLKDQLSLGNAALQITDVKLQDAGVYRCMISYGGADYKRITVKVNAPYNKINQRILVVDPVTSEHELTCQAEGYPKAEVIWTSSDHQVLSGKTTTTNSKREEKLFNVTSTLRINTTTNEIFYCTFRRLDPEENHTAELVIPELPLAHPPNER
The assay can be described thus: relative to original antibody h_Nb1 (SEQ ID NO. 1); ELISA comparison per Example 10. Background: ELISA stands for enzyme-linked immunosorbent assay.
In the case of B1, the “Improved value of relative affinity” value amounted to 4.12.
On the same count and under the same terms, the value for B2 was 4.28; that for B3 was 5.8.
Still for that read-out and setting: the value for B4 was 3.38; that for B5 was 11.7; that for B6 was 6.16.
The same measure, in the same setting: the value for B7 was 5.12; that for B8 was 7.02; that for B9 was 3.83.
For the molecule B10, the “Improved value of relative affinity” value is 5.13.
With B11, the “Improved value of relative affinity” value was determined as 4.9.
As to B12, the “Improved value of relative affinity” value is 12.1.
The same measure, in the same setting: for B13 the value was 3.31; for B14, 4.66; for B15, 6.16.

The next assay has as its target T1, human PD-L1 protein (ELISA antigen). Description: relative to original antibody h_Nb2 (SEQ ID NO. 5); ELISA comparison per Example 10.
Regarding B16, the “Improved value of relative affinity” value turned out to be 8.48.
Same read-out and setting: the value for B17 was 6.5; that for B18 was 3.98.
Still for that read-out and setting: for B19 the value was 10.
Still for that read-out and setting: the value for B20 was 5.11; that for B21 was 6.23; that for B22 was 1.46.
For the molecule B23, the “Improved value of relative affinity” value stood at 7.21.
Same read-out and setting: for B24 the value was 1.44; for B25, 3.41; for B26, 5.92.

A further assay has the same target. Description: ELISA; PD-L1 protein on NeutrAvidin plate, crude nanobody, anti-HA detection; positive = absorbance more than three times control. The procedure:
After several rounds of panning, TG1 competent cells in the logarithmic phase of growth were infected with the eluted phages, gradiently diluted and spread on the plate for overnight culture. 96 clones were picked and inoculated into a 96-well round-bottom plate with 100 μL of culture medium per well and left to be incubated overnight as the master plate. Then 10 μL of overnight cultured bacterial solution was pipetted into a 96-well deep-bottom plate with 1 mL of culture medium per well to induce nanobody expression which was then subjected to crude purification. The 96-well ELISA plate was coated with 5 μg/mL NeutrAvidin solution at 4° C., 700 rpm, overnight. The next day, 2% skim milk powder was added to block the plate at room temperature and washed 3 times with a solution containing bovine serum albumin BSA. 100 μL 3 μg/mL PD-L1 protein was added and incubated at room temperature for 30 minutes, then washed. The crudely extracted nanobody was added and incubated at room temperature for 1 h followed by washing. Mouse anti-HA primary antibody was added and the mixture was incubated at room temperature for 1 hour followed by washing. Goat anti-mouse alkaline phosphatase-labeled secondary antibody was added and the mixture was incubated at room temperature for 1 hour followed by washing. Alkaline phosphatase colorimetric solution was added for 10 minutes, and the absorption value was detected at 405 nm on a microplate reader. A well with an absorption value that is more than three times the absorption value of the control group is preliminarily determined as a positive well. The positive clones were transferred to a shaking tube for culture in order to extract the plasmid and then subjected to sequencing. Finally, 11 candidate positive clones were obtained.
B27: the binding result was “binds”.
The same measure, in the same setting: for B28 the value was “binds”; for B29, “binds”; for B30, “binds”.
Regarding B31, the binding result is on record as “binds”.
Take B32: the binding result was “binds”.
For B33, the binding result was “binds”.
The same measure, in the same setting: for B34 the value was “binds”.
B35: the binding result is given as “binds”.
